Laboratory results as given in US20120270234A1, “DDR2 PROTEIN WITH ACTIVATED KINASE ACTIVITY AND PREPARATION METHOD THEREOF” (KOREA INSTITUTE OF SCIENCE AND TECHNOLOGY, priority 2003, published 2012).

B1: GST-DDR1b CKD: fused protein of the GST and the human DDR1b cytosolic tyrosine kinase domain, control (protein)
chain: VLEEELTVHLSVPGDTILINNRPGPREPPPYQEPRPRGNPPHSAPCVPNGSALLLSNPAYRLLLATYARPPRGPGPPTPAWAKPTNTQAYSGDYMEPEKPGAPLLPPPPQNSVPHYAEADIVTLQGVTGGNTYAVPALPPGAVGDGPPRVDFPRSRLRFKEKLGEGQFGEVHLCEVDSPQDLVSLDFPLNVRKGHPLLVAVKILRPDATKNARNDFLKEVKIMSRLKDPNIIRLLGVCVQDDPLCMITDYMENGDLNQFLSAHQLEDKAAEGAPGDGQAAQGPTISYPMLLHVAAQIASGMRYLATLNFVHRDLATRNCLVGENFTIKIADFGMSRNLYAGDYYRVQGRAVLPIRWMAWECILMGKFTTASDVWAFGVTLWEVLMLCRAQPFGQLTDEQVIENAGEFFRDQGRQVYLSRPPACPQGLYELMLRCWSRESEQRPPFSQLHRFLAEDALNTV
modifications: left off: a dimerising Fc or GST
notes: fused protein of the GST and the human DDR1b cytosolic tyrosine kinase domain, control
B2: GST-Akt1: fused protein of the GST and the full-length mouse Akt1 kinase, control (protein)
chain: MNDVAIVKEGWLHKRGEYIKTWRPRYFLLKNDGTFIGYKERPQDVDQRESPLNNFSVAQCQLMKTERPRPNTFIIRCLQWTTVIERTFHVETPEEREEWATAIQTVADGLKRQEEETMDFRSGSPSDNSGAEEMEVSLAKPKHRVTMNEFEYLKLLGKGTFGKVILVKEKATGRYYAMKILKKEVIVAKDEVAHTLTENRVLQNSRHPFLTALKYSFQTHDRLCFVMEYANGGELFFHLSRERVFSEDRARFYGAEIVSALDYLHSEKNVVYRDLKLENLMLDKDGHIKITDFGLCKEGIKDGATMKTFCGTPEYLAPEVLEDNDYGRAVDWWGLGVVMYEMMCGRLPFYNQDHEKLFELILMEEIRFPRTLGPEAKSLLSGLLKKDPTQRLGGGSEDAKEIMQHRFFANIVWQDVYEKKLSPPFKPQVTSETDTRYFDEEFTAQMITITPPDQDDSMECVDSERRPHFPQFSYSASGTA
modifications: left off: a dimerising Fc or GST
notes: fused protein of the GST and the full-length mouse Akt1 kinase, control
B3: GST-CDK4: fused protein of the GST and the full-length human CDK4 kinase, control (protein)
chain: MATSRYEPVAEIGVGAYGTVYKARDPHSGHFVALKSVRVPNGGGGGGGLPISTVREVALLRRLEAFEHPNVVRLMDVCATSRTDREIKVTLVFEHVDQDLRTYLDKAPPPGLPAETIKDLMRQFLRGLDFLHANCIVHRDLKPENILVTSGGTVKLADFGLARIYSYQMALTPVVVTLWYRAPEVLLQSTYATPVDMWSVGCIFAEMFRRKPLFCGNSEADQLGKIFDLIGLPPEDDWPRDVSLPRGAFPPRGPRPVQSVVPEMEESGAQLLLEMLTFNPHKRISAFRALQHSYLHKDEGNPE
modifications: left off: a dimerising Fc or GST
notes: fused protein of the GST and the full-length human CDK4 kinase, control

What was measured:
[1] = target: T1, c-Src tyrosine kinase (Mus musculus, UniProt P05480, P80A); test: tyrosine phosphorylation on co-expression with c-Src in insect cells, western blotting with phosphorylated tyrosine specific antibody; format: cell-based, Spodoptera frugiperda; conditions: glutathione bead purified, FIG. 2, FIG. 4
T1 construct: Full length human c-Src gene was per amplified from the vector of pUSE human O-Src wild (Upstate Biotechnology); host or cells: sf9 insect cells co-infected with two recombinant baculoviruses
From the text: The results shown in FIG. 4 were obtained by co-expressing a fused protein GST-DDR2 CKD, a fused protein (GST-DDR1b CKD) of the GST and the human DDR1b cytosolic tyrosine kinase domain, a fused protein (GST-Akt1) of the GST and the full-length mouse Akt1 kinase and a fused protein (GST-CDK4) of the GST and the full-length human CDK4 kinase with the c-Src protein without GST tagging in insect cells, respectively; purifying the respective expressed product using glutathione beads; performing SDS-PAGE; and performing the western blotting test using a phosphorylated tyrosine specific antibody and coomassie staining.
The results shown in FIG. 4 have been obtained by co-expressing the full-length c-Src protein together with the fused proteins, GST-DDR2 CKD, GST-DDR1b CKD, GST-Akt1 and GST-CDK4, respectively; in sf9 cells, then performing a western blotting test on each purified GST tagged protein using a phosphorylated tyrosine specific antibody. The presence of a similar amount of each purified GST tagged protein was shown by CBB staining.
GST tagged kinase defective DDR2 cytosolic domain (GST-kd-DDR2-CKD) with intact three tyrosines in the activation loop or with various phenylalanine mutations described in the text were co-expressed with Src in sf9 cells. GST tagged proteins were purified and the same amount of proteins estimated by CBB staining was used for western blotting using P-tyro antibody.
Phospho-tyrosine specific antibody was purchased from Cell Signaling Inc, USA. Specific antibodies to human c-Src, human c-Fyn, and she were obtained from SantaCruz, USA. Samples were boiled for 2 min in 1× lameli sample buffer, and loaded in 10% SDS-PAGE. Proteins were transferred to Immobilon-P membrane (Millipore) and blacked by 10% skim milk in TBS for an hour. The membrane was immunoblotted with antibodies for 2 hours and subsequently washed with 1×TBS five times. Then it was incubated with HRP conjugated secondary antibodies for an hour and protein bands were detected using chemiluminescence kit (Amersham).

[2] = tested on: sf9 cells; test: tyrosine phosphorylation by H2O2 processing of expressing insect cells, western blotting with phosphorylated tyrosine specific antibody; format: cell-based, Spodoptera frugoperda; conditions: 200 μM H2O2 for half of an hour; FIG. 2, FIG. 5
Experimental: The results shown in FIG. 5 were obtained by solely expressing the fused proteins, GST-DDR2 CKD, the GST-DDR1b CKD, the GST-CDK4 and the GST-CDK1, respectively, in insect cells; processing with 200 μM of H2O2 for half of an hour; purifying the respective expressed product using glutathione beads; performing the SDS-PAGE; and performing the western blotting test using an phosphorylated tyrosine specific antibody and coomassie staining.
The results shown in FIG. 5 have been obtained by solely expressing GST-DDR2 CKD, GST-DDR1b CKD, GST-CDK4 and GST-CDK1, respectively in sf9 cells; processing each expressed cells with H2O2 of 200 uM for half of an hour or not; and then purifying the GST tagged protein followed by a western blotting using a phosphorylated tyrosine specific antibody. The presence of a similar amount of each purified GST tagged protein was shown by CBB staining.
The recombinant baculoviruses having the GST-DDR2 CKD coding gene were transfected into sf9 insect cells, by setting MOU to 10 and the cells were cultured for 24 to 72 hours, to express the protein. […], at the concentration of 200 μM was added to the cultured cells. The cells were left for half of an hour, and collected. The collected cells were lysed and the GST-DDR2 CKD was purified from the expressed products, using the glutathione agarose bead column chromatography. The purified protein was subjected to an electrophoresis in 10% polyacrylamaid gel.
After completing the electrophoresis, the protein developed in the gel was transferred to nitrocellulose, and then subjected to a western blotting using a phosphorylated tyrosine specific antibody (Cell signaling Inc, USA), to measure the chemiluminescence signal using x-ray film. For the control, the chemical luminescence of the case without H2O2 processing was measured by the method as mentioned above.

| Molecule | tyrosine phosphorylation induced by co-expression with c-Src [1] | tyrosine phosphorylation induced by H2O2 processing [2] |
| --- | --- | --- |
| B1 | poorly induced or never induced | poorly induced or never induced |
| B2 | poorly induced or never induced |  |
| B3 | poorly induced or never induced | poorly induced or never induced |
